Reference: patent US20210403579A1 (DELINIA, published 2021)
Positions count from the first letter of the chain named. Each block holds one binder with its values, some of them ahead of it.

Legend:
[1] = molecular target: T1, Mouse ST2 (mouse, UniProt P14719 27-332, limits assumed); test: SPR (Carterra), antibody immobilized, ST2 analyte, 1:1
T1 construct: also called mouse ST2 protein
T1 sequence (looked up): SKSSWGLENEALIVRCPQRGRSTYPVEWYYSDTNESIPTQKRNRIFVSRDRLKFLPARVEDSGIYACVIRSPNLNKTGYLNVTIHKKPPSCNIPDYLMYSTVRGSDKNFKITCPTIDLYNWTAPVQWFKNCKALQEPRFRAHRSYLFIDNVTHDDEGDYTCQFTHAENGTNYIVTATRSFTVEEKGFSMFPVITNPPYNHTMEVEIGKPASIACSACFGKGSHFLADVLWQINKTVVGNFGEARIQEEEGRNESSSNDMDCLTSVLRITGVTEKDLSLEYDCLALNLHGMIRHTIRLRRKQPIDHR
Procedure: (§1) Binding of the reformatted human ST2 antibodies to the human and mouse ST2 proteins was evaluated by surface plasmon resonance (SPR), using a high throughput antibody screening and characterization platform from Carterra (Salt Lake City, Utah).

[2] = molecular target: T2, Human ST2 (human, UniProt Q01638 19-328, limits assumed); test: as above
T2 construct: also called human ST2 protein; Interleukin 1 receptor-like 1
T2 sequence (looked up): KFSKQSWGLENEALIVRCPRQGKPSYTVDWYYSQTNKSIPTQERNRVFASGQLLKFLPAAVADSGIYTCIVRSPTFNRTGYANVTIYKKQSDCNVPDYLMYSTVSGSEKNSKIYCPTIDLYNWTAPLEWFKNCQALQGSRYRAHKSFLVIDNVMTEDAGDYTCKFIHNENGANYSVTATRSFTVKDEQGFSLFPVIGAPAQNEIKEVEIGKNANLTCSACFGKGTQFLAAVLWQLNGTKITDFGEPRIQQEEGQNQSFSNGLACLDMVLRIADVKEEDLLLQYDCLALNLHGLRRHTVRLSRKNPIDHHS
Procedure: as §1

Kd [1]: 1400 nM
koff [1]: 0.13 s⁻¹
kon [1]: 95000 M⁻¹ s⁻¹
B1: Human ST2 IgG1 Antibody 45 (antibody, V domains shown)
VH: QVQLVQSGAEVKKPGSSVKVSCKASGGTFSSYAISWVRQAPGQGLEWMGGIVPIFETANYAQKFQGRVTITADESTSTAYMELSSLRSEDTAVYYCARDTPNFDYWGQGTLVTVSS
VL: not shown
notes: IgG1, kappa; also called ST2 Antibody 45

Kd [1]: 3100 nM
koff [1]: 0.16 s⁻¹
kon [1]: 51000 M⁻¹ s⁻¹
B2: Human ST2 IgG1 Antibody 57 (antibody, V domains shown)
VH: QVQLVQSGAEVKKPGASVKVSCKASGYTFTGYYMHWVRQAPGQGLEWMGVINPSGGSTSYAQKFQGRVTMTRDTSTSTVYMELSSLRSEDTAVYYCARGDYYYGSGSDYYYYYGMDVWGQGTLVTVSS
VL: DIQMTQSPSSLSASVGDRVTITCRASQGVTSWLAWYQQKPGKAPKLLIYAASTLQSGVPSRFSGSGSGTDFTLTISSLQPEDFATYYCQQANSFPLTFGGGTKVEIKR
notes: IgG1, kappa; also called ST2 Antibody 57

Kd [1]: 438 nM
koff [1]: 0.063 s⁻¹
kon [1]: 140000 M⁻¹ s⁻¹
B3: Human ST2 IgG1 Antibody 83 (antibody, V domains shown)
VH: EVQLLESGGGLVKPGGSLRLSCAASGFTFSSYWMSWVRQAPGKGLEWVSAIGTAGDTYYPGSVKGRFTISRDDSKNTLYLQMNSLKTEDTAVYYCAILRRDKVWPFDYWGQGTLVTVSS
VL: B2 VL with G28S, V29I, T30S, W32H, A34H, T53S, A91S, N92Y, F94S, L96V
notes: IgG1, kappa; also called ST2 Antibody 83

Kd [1]: 419 nM
koff [1]: 0.098 s⁻¹
kon [1]: 230000 M⁻¹ s⁻¹
B4: Human ST2 IgG1 Antibody 99 (antibody, V domains shown)
VH: EVQLLESGGGLVQPGGSLRLSCAASGFTFSDYYMNWVRQAPGKGLEWVSTISGFGESTFYADSVKGRFTISRDNSKNTLYLQMNSLRAEDTAVYYCARLGAARAFDIWGQGTTVTVSS
VL: DIQMTQSPSSLSASVGDRVTITCRASQSIGSWMAWYQQKPGKAPKLLIYAASTLQSGVPSRFSGSGSGTDFTLTISSLQPEDFATYYCQQSYTTPITFGPGTKVDIKR
notes: IgG1, kappa; also called ST2 Antibody 99

Kd [1]: 2700 nM
koff [1]: 0.13 s⁻¹
kon [1]: 50000 M⁻¹ s⁻¹
B5: Human ST2 IgG1 Antibody 54 (antibody, V domains shown)
VH: EVQLLESGGGLVQPGGSLRLSCAASGFTVSSNYMSWVRQAPGKGLEWVSAISGSGGSTYYADSVKGRFTISRDNSKNTLYLQMNSLRAEDTAVYYCARGRFGSRDVWGKGTTVTVSS
VL: not shown
notes: IgG1, kappa; also called ST2 Antibody 54

Kd [1]: 2400 nM
koff [1]: 0.15 s⁻¹
kon [1]: 62000 M⁻¹ s⁻¹
B6: Human ST2 IgG1 Antibody 63 (antibody, V domains shown)
VH: QVQLVQSGAEVKKPGSSVKVSCKASGGTFSSDAINWVRQAPGQGLEWMGGIVPAFGTANYAQKFQGRVTITADESTSTAYMELSSLRSEDTAVYYCARSSSSWPYYYYYMDVWGKGTTVTVSS
VL: DIVMTQSPLSLPVTPGEPASISCRSSQSLLLNNGNNFIDWYLQKPGQSPQLLIYAASILQGGVPDRFSGSGSGTDFTLKISRVEAEDVGVYYCMQALQTPPTFGQGTKVEIKR
notes: IgG1, kappa; also called ST2 Antibody 63

Kd [1]: 989 nM
koff [1]: 0.1 s⁻¹
kon [1]: 100000 M⁻¹ s⁻¹
B7: Human ST2 IgG1 Antibody 89 (antibody, V domains shown)
VH: EVQLLESGGGLVKPGGSLRLSCAASGFTFSSYWMSWVRQAPGKGLEWVSAISGTAINTYYADSVKGRFTISRDDSKNTLYLQMNSLKTEDTAVYYCARVRRDSSGGGAFDIWGQGTMVTVSS
VL: DIQMTQSPSSLSASVGDRVTITCRASQGISNNLNWYQQKPGKAPKLLIYAASSLQTGVPSRFSGSGSGTDFTLTISSLQPEDFATYYCQQSYSTPPTFGQGTKVEIKR
notes: IgG1, kappa; also called ST2 Antibody 89

Kd [1]: 975 nM
koff [1]: 0.12 s⁻¹
kon [1]: 120000 M⁻¹ s⁻¹
B8: Human ST2 IgG1 Antibody 98 (antibody, V domains shown)
VH: B7 VH
VL: B7 VL
notes: IgG1, kappa; also called ST2 Antibody 98

Kd [1]: 778 nM
koff [1]: 0.14 s⁻¹
kon [1]: 180000 M⁻¹ s⁻¹
B9: Human ST2 IgG1 Antibody 76 (antibody, V domains shown)
VH: QVQLVQSGAEVKKPGSSVKVSCKASGYTFTDYYMHWVRQAPGQGLEWMGVIIPVLGAAKYAQKFQGRVTITADESTSTAYMELSSLRSEDTAVYYCAKGWGAFDIWGQGTMVTVSS
VL: EIVMTQSPATLSVSPGERATLSCRASQSVSSYLAWYQQKPGQAPRLLIYGASTRASGIPARFSGSGSGTEFTLTISSLQSEDFAVYYCQQYYSYPWTFGQGTKVEIKR
notes: IgG1, kappa; also called ST2 Antibody 76

Kd [1]: 507 nM
koff [1]: 0.098 s⁻¹
kon [1]: 190000 M⁻¹ s⁻¹
B10: Human ST2 IgG1 Antibody 86 (antibody, V domains shown)
VH: QVQLVQSGAEVKKPGSSVKVSCKASGGTFSNYAISWVRQAPGQGLEWMGGIIPIFGTANYAQKFQGRVTITADESTSTAYMELSSLRSEDTAVYYCAKDLGGWFNLFDPWGQGTLVTVSS
VL: B9 VL with S28G, S56T, Y92R, Y94F, W96L, Q100G
notes: IgG1, kappa; also called ST2 Antibody 86

Kd [1]: 2700 nM
koff [1]: 0.16 s⁻¹
kon [1]: 59000 M⁻¹ s⁻¹
B11: Human ST2 IgG1 Antibody 52 (antibody, V domains shown)
VH: QVQLVQSGAEVKKPGSSVKVSCKASGGTFSNYAISWVRQAPGQGLEWMGWISAYNGNTNYAQKFQGRVTITADESTSTAYMELSSLRSEDTAVYYCARLSTVTTRPYYYYGMDVWGQGTTVTVSS
VL: DIVMTQSPLSLPVTPGEPASISCRSSQSLLHSNGYNYLDWYLQKPGQSPQLLIYAASSLQGGVPDRFSGSGSGTDFTLKISRVEAEDVGVYYCMQGTHWPTFGQGTKVEIKR
notes: IgG1, kappa; also called ST2 Antibody 52

Kd [1]: 744 nM
koff [1]: 0.13 s⁻¹
kon [1]: 180000 M⁻¹ s⁻¹
B12: Human ST2 IgG1 Antibody 78 (antibody, V domains shown)
VH: EVQLLESGGGLVQPGGSLRLSCAASDFNFKNAWMSWVRQAPGKGLEWVSAISGNGAGTYYADSVKGRFTISRDNSKNTLYLQMNSLRAEDTAVYYCARVGETGAFDIWGQGTTVTVSS
VL: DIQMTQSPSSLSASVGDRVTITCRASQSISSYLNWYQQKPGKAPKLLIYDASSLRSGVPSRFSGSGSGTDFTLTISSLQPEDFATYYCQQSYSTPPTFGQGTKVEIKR
notes: IgG1, kappa; also called ST2 Antibody 78

Kd [2]: 590 nM
koff [2]: 0.11 s⁻¹
kon [2]: 190000 M⁻¹ s⁻¹
B13: Human ST2 IgG1 Antibody 101 (antibody, V domains shown)
VH: QVQLVQSGAEVKKPGASVKVSCKASGYTFSTYDINWVRQAPGQGLEWVGIISPSGGWTTYAQKFQGRVTMTRDTSTSTVYMELSSLRSEDTAVYYCARVNYDILTGQGRGYYFDYWGQGTLVTVSS
VL: DIQMTQSPSSLSASVGDRVTITCQATQDIADYLNWYQQKPGKAPKLLIYKASSLESGVPSRFSGSGSGTDFTLTISSLQPEDFATYYCQQSYSTPTFGPGTKVDIKR
notes: IgG1, kappa; also called ST2 Antibody 101

Kd [1]: 3900 nM
koff [1]: 0.13 s⁻¹
kon [1]: 33000 M⁻¹ s⁻¹
B14: Human ST2 IgG1 Antibody 70 (antibody, V domains shown)
VH: QVQLVQSGAEVKKPGSSVKVSCKASGYAFTDYFIHWVRQAPGQGLEWMGGIIPIFGTANYAQKFQGRVTITADKSTSTAYMELSSLRSEDTAVYYCARVAYGAFDIWGQGTMVTVSS
VL: EIVMTQSPATLSVSPGERATLSCRASQSVSSSYLAWYQQKPGQAPRLLIYGASTRATGIPARFSGSGSGTEFTLTISSLQSEDFAVYYCQQYNNWPLTFGGGTKVEIKR
notes: IgG1, kappa; also called ST2 Antibody 70

Kd [1]: 436 nM
koff [1]: 0.12 s⁻¹
kon [1]: 270000 M⁻¹ s⁻¹
B15: Human ST2 IgG1 Antibody 49 (antibody, V domains shown)
VH: QVQLVQSGAEVKKPGASVKVSCKASGGTLSSYAISWVRQAPGQGLEWMGGISPYNGKANYAEKLQGRVTMTRDTSTSTVYMELSSLRSEDTAVYYCAIRSIAAREGVYYYYMDVWGKGTTVTVSS
VL: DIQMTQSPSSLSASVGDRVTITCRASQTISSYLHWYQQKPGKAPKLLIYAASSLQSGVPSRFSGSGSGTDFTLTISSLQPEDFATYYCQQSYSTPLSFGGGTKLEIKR
notes: IgG1, kappa; also called ST2 Antibody 49

Kd [2]: 270 nM
koff [2]: 0.065 s⁻¹
kon [2]: 240000 M⁻¹ s⁻¹
B16: Human ST2 IgG1 Antibody 102 (antibody, V domains shown)
VH: QVQLVQSGAEVKKPGSSVKVSCKASGYIFTRYYVNWVRQAPGQGLEWMGGIIPMFGTSNYAQKFQGRVTITADESTSTAYMELSSLRSEDTAVYYCARSSGYDSFKIDYWGQGTLVTVSS
VL: not shown
notes: IgG1, kappa
